Numbered stars: 1 amine (or outer) side, 2 acyl side, 3 side chain; on linkers, the order of the positions; unused ones are H or OH. Square brackets hold non-standard residues; d marks the D form. Side chains are listed from the residue outwards. Ends that are not written are not given here. * marks the point of attachment. C18 diacid = O=C(O)CCCCCCCCCCCCCCCCC(=O)*; γGlu = O=C(O)[C@H](CCC(=O)[*:2])N[*:1]; AEEA = NCCOCCOCC(=O)O; Aib = CC(C)(N)C(=O)O
T1: human GIP receptor (human, UniProt P48546 22-466)
T1 construct: whole, on cells; also called hGIPR; hGIP-R
T1 sequence (looked up): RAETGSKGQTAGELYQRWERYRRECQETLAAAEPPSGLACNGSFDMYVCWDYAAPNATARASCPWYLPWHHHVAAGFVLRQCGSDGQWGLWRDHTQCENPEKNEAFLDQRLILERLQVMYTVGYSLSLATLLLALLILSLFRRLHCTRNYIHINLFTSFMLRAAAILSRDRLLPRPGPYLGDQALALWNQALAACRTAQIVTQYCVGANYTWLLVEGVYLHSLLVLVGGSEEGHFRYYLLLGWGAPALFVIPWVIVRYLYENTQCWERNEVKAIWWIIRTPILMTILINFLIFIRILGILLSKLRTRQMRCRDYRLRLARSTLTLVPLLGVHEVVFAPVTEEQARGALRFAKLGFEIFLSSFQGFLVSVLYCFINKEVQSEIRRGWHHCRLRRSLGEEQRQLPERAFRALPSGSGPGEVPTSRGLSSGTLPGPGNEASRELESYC


Tests used:
human GIP receptor = biological target: T1, human GIP receptor; assay: [125I]-GIP competition SPA, hGIPR membranes
human GLP-1 receptor = biological target: T2, human GLP-1 receptor (human, UniProt P43220 24-463); assay: [125I]-GLP-1 competition SPA, hGLP-1R membranes
T2 construct: whole, on cells; also called hGLP-1R; hGLP1R
Procedure, shortened: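 Kᵢ values are geometric means (SEM) over replicates run on separate days, derived from IC₅₀ of four-parameter curve fits. Buffer: HEPES 25 mM pH 7.4 with CaCl₂ 2.5 mM, MgCl₂ 1 mM, bacitracin 0.1%, TWEEN-20 0.003%, EDTA-free protease inhibitors.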

human glucagon receptor = biological target: T3, human glucagon receptor (human, UniProt P47871 26-477); assay: [125I]-Gcg competition SPA, hGcgR membranes
T3 construct: whole, on cells; also called hGcgR; GcgR
T3 sequence (P47871 26-477): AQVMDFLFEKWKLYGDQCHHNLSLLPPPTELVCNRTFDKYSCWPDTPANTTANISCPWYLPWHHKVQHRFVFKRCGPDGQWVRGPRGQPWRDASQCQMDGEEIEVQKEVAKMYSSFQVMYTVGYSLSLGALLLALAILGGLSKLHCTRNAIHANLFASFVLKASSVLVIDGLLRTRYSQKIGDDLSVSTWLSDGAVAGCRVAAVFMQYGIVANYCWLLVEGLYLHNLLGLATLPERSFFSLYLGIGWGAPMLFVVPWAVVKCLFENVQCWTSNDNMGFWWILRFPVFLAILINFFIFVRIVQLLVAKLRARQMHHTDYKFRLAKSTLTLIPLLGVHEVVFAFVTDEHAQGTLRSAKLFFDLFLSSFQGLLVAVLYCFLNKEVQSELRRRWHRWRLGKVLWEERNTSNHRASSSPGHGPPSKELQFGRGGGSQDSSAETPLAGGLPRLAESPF

Binder	Ki (human GIP receptor) [nM]	Ki (human GLP-1 receptor) [nM]	Ki (human glucagon receptor) [nM]
YXEGTFTSDYSILLDKKAQQAFIEYLIEGGPSSGAPPPS (Aib2; K17((2-[2-(2-Amino-ethoxy)-ethoxy]-acetyl)2-(γ-Glu)-CO-(CH2)18-CO2H); C-terminal NH2) [Example 254]	0.108	2.58	148
YXEGTFTSDYSILLDKKAQHAFIEYLIEGGPSSGAPPPS (Aib2; K17((2-[2-(2-Amino-ethoxy)-ethoxy]-acetyl)2-(γ-Glu)-CO-(CH2)18-CO2H); C-terminal NH2) [Example 255]	0.0772	2.58	257
YXEGTXTSDYSIXLDEKAQXEFIXYLIEGGPSSG (Aib2; αMeF(2F)6; αMeL13; K17((2-[2-(2-Amino-ethoxy)-ethoxy]-acetyl)2-(γ-Glu)-CO-(CH2)16-CO2H); Aib20; D-Glu24; C-terminal NH2) [Example 219]	0.0689	2.01	373
YXEGTXTSDXSIXLDXKAQXEFIXXLIEGGPSSG (Aib2; αMeF(2F)6; 4Pal10; αMeL13; Orn16; K17((2-[2-(2-Amino-ethoxy)-ethoxy]-acetyl)2-(γ-Glu)-CO-(CH2)16-CO2H); Aib20; D-Glu24; αMeY25; C-terminal NH2) [Example 264]	0.015	0.412	388
YXEGTXTSDYSIXLDKKAQXEFIXYLIEGGPSSG (Aib2; αMeF6; αMeL13; K17((2-[2-(2-Amino-ethoxy)-ethoxy]-acetyl)2-(γ-Glu)-CO-(CH2)18-CO2H); Aib20; D-Glu24; C-terminal NH2) [Example 228]	0.028	2.43	182
YXEGTXTSDYSIXLDEKAQXEFIXYLIEGG (Aib2; αMeF(2F)6; αMeL13; K17((2-[2-(2-Amino-ethoxy)-ethoxy]-acetyl)2-(γ-Glu)-CO-(CH2)16-CO2H); Aib20; D-Glu24; C-terminal NH2) [Example 220]	0.0919	2.71	377
YXEGTXTSDXSIXLDXKAQXEFIXXLIEGG (Aib2; αMeF(2F)6; 4Pal10; αMeL13; Orn16; K17((2-[2-(2-Amino-ethoxy)-ethoxy]-acetyl)2-(γ-Glu)-CO-(CH2)16-CO2H); Aib20; D-Glu24; αMeY25; C-terminal NH2) [Example 265]	0.0224	0.537	567
Y[Aib]EGTFTSDYSILLDKK([AEEA-AEEA-γGlu-C18 diacid])AQ[Aib]AFIEYLIEGGPSSG-NH2 (N-terminus assumed; SMILES CC[C@H](C)[C@H](NC(=O)[C@H](CC(C)C)NC(=O)[C@H](Cc1ccc(O)cc1)NC(=O)[C@H](CCC(=O)O)NC(=O)[C@@H](NC(=O)[C@H](Cc1ccccc1)NC(=O)[C@H](C)NC(=O)C(C)(C)NC(=O)[C@H](CCC(N)=O)NC(=O)[C@H](C)NC(=O)[C@H](CCCCNC(=O)COCCOCCNC(=O)COCCOCCNC(=O)CC[C@H](NC(=O)CCCCCCCCCCCCCCCCC(=O)O)C(=O)O)NC(=O)[C@H](CCCCN)NC(=O)[C@H](CC(=O)O)NC(=O)[C@H](CC(C)C)NC(=O)[C@H](CC(C)C)NC(=O)[C@@H](NC(=O)[C@H](CO)NC(=O)[C@H](Cc1ccc(O)cc1)NC(=O)[C@H](CC(=O)O)NC(=O)[C@H](CO)NC(=O)[C@@H](NC(=O)[C@H](Cc1ccccc1)NC(=O)[C@@H](NC(=O)CNC(=O)[C@H](CCC(=O)O)NC(=O)C(C)(C)NC(=O)[C@@H](N)Cc1ccc(O)cc1)[C@@H](C)O)[C@@H](C)O)[C@@H](C)CC)[C@@H](C)CC)C(=O)N[C@@H](CCC(=O)O)C(=O)NCC(=O)NCC(=O)N1CCC[C@H]1C(=O)N[C@@H](CO)C(=O)N[C@@H](CO)C(=O)NCC(N)=O) [Example 266]	0.0666	2.01	193
YXEGTXTSDYSIXLDEKAQXEFIXYLIEGGPSSGAPPPS (Aib2; αMeF(2F)6; αMeL13; K17((2-[2-(2-Amino-ethoxy)-ethoxy]-acetyl)2-(γ-Glu)-CO-(CH2)16-CO2H); Aib20; D-Glu24; C-terminal NH2) [Example 221]	0.0414	1.77	154
YXEGTXTSDYSIXLDEKAQXEFIXXLIEGGPSSGAPPPS (Aib2; αMeF(2F)6; αMeL13; K17((2-[2-(2-Amino-ethoxy)-ethoxy]-acetyl)2-(γ-Glu)-CO-(CH2)18-CO2H); Aib20; D-Glu24; αMeY25; C-terminal NH2) [Example 222]	0.0495	3.59	71.3
YXEGTXTSDYSIXLDXKAQXEFIXYLIEGGPSSGAPPPS (Aib2; αMeF(2F)6; Aib13; Orn16; K17((2-[2-(2-Amino-ethoxy)-ethoxy]-acetyl)2-(γ-Glu)-CO-(CH2)18-CO2H); Aib20; D-Glu24; C-terminal NH2) [Example 250]	0.0171	1.72	198
YXEGTXTSDXSIXLDXKAQXAFIXXLIEGGPSSGAPPPS (Aib2; αMeF(2F)6; 4Pal10; αMeL13; Orn16; K17((2-[2-(2-Amino-ethoxy)-ethoxy]-acetyl)2-(γ-Glu)-CO-(CH2)16-CO2H); Aib20; D-Glu24; αMeY25; C-terminal NH2) [Example 240]	0.0284	0.552	204
YXEGTXTSDYSIXLDEKAQXEFIXYLIEGGPSSGAPPPS (Aib2; αMeF6; αMeL13; K17((2-[2-(2-Amino-ethoxy)-ethoxy]-acetyl)2-(γ-Glu)-CO-(CH2)18-CO2H); Aib20; D-Glu24; C-terminal NH2) [Example 227]	0.0146	2.01	113
YXEGTXTSDYSILLDEKAQXEFIXYLIEGGPSSGAPPPS (Aib2; αMeF(2F)6; K17((2-[2-(2-Amino-ethoxy)-ethoxy]-acetyl)2-(γ-Glu)-CO-(CH2)18-CO2H); Aib20; D-Glu24; C-terminal NH2) [Example 226]	0.0254	4.1	200
YXEGTXTSDYSIXLDEKAQXEFIXYLIEGGPSSGAPPPS (Aib2; αMeF(2F)6; Aib13; K17((2-[2-(2-Amino-ethoxy)-ethoxy]-acetyl)2-(γ-Glu)-CO-(CH2)18-CO2H); Aib20; D-Glu24; C-terminal NH2) [Example 224]	0.0482	6.86	627
YXEGTXTSDYSIXLDEKAQXEFIXYLIEGGPSSGAPPPS (Aib2; αMeF6; Aib13; K17((2-[2-(2-Amino-ethoxy)-ethoxy]-acetyl)2-(γ-Glu)-CO-(CH2)18-CO2H); Aib20; D-Glu24; C-terminal NH2) [Example 225]	0.0622	8.79	714
YXEGTXTSDYSIXLDEKAQXEFIEXLIEGGPSSGAPPPS (Aib2; αMeF(2F)6; αMeL13; K17((2-[2-(2-Amino-ethoxy)-ethoxy]-acetyl)2-(γ-Glu)-CO-(CH2)18-CO2H); Aib20; αMeY25; C-terminal NH2) [Example 223]	0.0921	5.62	46.5
YXEGTXTSDLSIXLDXKAQXEFIXXLIEGGPSSGAPPPS (Aib2; αMeF(2F)6; αMeL13; Orn16; K17((2-[2-(2-Amino-ethoxy)-ethoxy]-acetyl)2-(γ-Glu)-CO-(CH2)16-CO2H); Aib20; D-Glu24; αMeY25; C-terminal NH2) [Example 238]	0.0403	0.548	230
YXEGTXTSDXSIXLDXKAQXAFIXXLIEGGPSSGAPPPS (Aib2; αMeF(2F)6; 4Pal10; αMeL13; Orn16; K17((2-[2-(2-Amino-ethoxy)-ethoxy]-acetyl)2-(εK)-CO-(CH2)18-CO2H); Aib20; D-Glu24; αMeY25; C-terminal NH2) [Example 251]	0.0249	1.09	21.2
YXEGTXTSDYSIXLDXKAQXEFIXXLIEGGPSSGAPPPS (Aib2; αMeF(2F)6; αMeL13; Orn16; K17((2-[2-(2-Amino-ethoxy)-ethoxy]-acetyl)2-(γ-Glu)-CO-(CH2)16-CO2H); Aib20; D-Glu24; αMeY25; C-terminal NH2) [Example 236]	0.0425	1.05	200
YXEGTXTSDVSIXLDXKAQXTFIXXLIEGGPSSGAPPPS (Aib2; αMeF(2F)6; αMeL13; Orn16; K17((2-[2-(2-Amino-ethoxy)-ethoxy]-acetyl)2-(γ-Glu)-CO-(CH2)16-CO2H); Aib20; D-Glu24; αMeY25; C-terminal NH2) [Example 241]	0.042	0.799	167
YXEGTXTSDXSIXLDXKAQXTFIXXLIEGGPSSGAPPPS (Aib2; αMeF(2F)6; 4Pal10; αMeL13; Orn16; K17((2-[2-(2-Amino-ethoxy)-ethoxy]-acetyl)2-(γ-Glu)-CO-(CH2)16-CO2H); Aib20; D-Glu24; αMeY25; C-terminal NH2) [Example 239]	0.101	2.71	596
YXEGTXTSDLSIXLDXKAQXAFIXXLIEGGPSSGAPPPS (Aib2; αMeF(2F)6; αMeL13; Orn16; K17((2-[2-(2-Amino-ethoxy)-ethoxy]-acetyl)2-(γ-Glu)-CO-(CH2)16-CO2H); Aib20; D-Glu24; αMeY25; C-terminal NH2) [Example 244]	0.0308	0.82	87.8
YXEGTXTSDLSIXLDXKAQXTFIXXLIEGGPSSGAPPPS (Aib2; αMeF(2F)6; αMeL13; Orn16; K17((2-[2-(2-Amino-ethoxy)-ethoxy]-acetyl)2-(γ-Glu)-CO-(CH2)16-CO2H); Aib20; D-Glu24; αMeY25; C-terminal NH2) [Example 243]	0.0325	0.67	145
YXEGTXTSDVSIXLDXKAQXAFIXXLIEGGPSSGAPPPS (Aib2; αMeF(2F)6; αMeL13; Orn16; K17((2-[2-(2-Amino-ethoxy)-ethoxy]-acetyl)2-(γ-Glu)-CO-(CH2)16-CO2H); Aib20; D-Glu24; αMeY25; C-terminal NH2) [Example 242]	0.0604	0.853	95.9
YXEGTXTSDXSIXLDXKAQXAFIXXLIAGGPSSGAPPPS (Aib2; αMeF(2F)6; 4Pal10; αMeL13; Orn16; K17((2-[2-(2-Amino-ethoxy)-ethoxy]-acetyl)2-(εK)-CO-(CH2)18-CO2H); Aib20; D-Glu24; αMeY25; C-terminal NH2) [Example 252]	0.00971	0.383	26

— patent publication US20200024322A1 (Eli Lilly, published 2020)
